Results on 21 molecules are retold here after patent US20250296971A1, “GASTRIC INHIBITORY PEPTIDE RECEPTOR LIGANDS” (priority 2021, published 2025).

The labels stand for the following.
B1: AGLU-Glutar-Asp-Trp-5Clw-Hyp-Glu-leu-[Cys(2Lut)-Apc(GaDOTA)-Leu-Ile-Cys]-APAc-glu(AGLU)-NH2 (peptide)
peptide: DWXXEXCXLIC
modifications: N-term AGLU-Glutar; 5Clw; Hyp; leu (D-Leu); thioether cycle [Cys(2Lut)..Cys]; Apc(GaDOTA); C-term APAc-glu(AGLU)-NH2
B2: DOTA-O2Oc-glu(AGLU)-Asp-Trp-5Clw-Tap-Glu-leu-[Cys(2Lut)-Apc(AGLU-Glutar)-Leu-Ile-Cys]-APAc-glu(AGLU)-NH2 (peptide)
peptide: DW[Trp(5-Cl)][Pro(trans-4-NH2)]E[dL]C[Api]([Glutaryl-NH(1-deoxy-D-glucityl)])LIC-{APAc-(dE)(AGLU)-NH2}
modifications: linker 7-11 via Pyridine(2,6-diCH2); not fully specified (N-terminus); printed as DOTA-O2Oc-glu(AGLU)-Asp-Trp-5Clw-Tap-Glu-leu-[Cys(2Lut)-Apc(AGLU-Glutar)-Leu-Ile-Cys]-APAc-glu(AGLU)-NH2
B3: DOTA-Ttds-Asp-Trp-5Clw-Pro-Glu-leu-[Cys(3MeBn)-Egz-Leu-Ile-AET] (peptide)
peptide: {DOTA-Ttds}-DW[Trp(5-Cl)]PE[dL]C[Ac6c]LI[Cysteamide]
modifications: linker (positions not given here) via mXylylene; not fully specified (bridges); printed as DOTA-Ttds-Asp-Trp-5Clw-Pro-Glu-leu-[Cys(3MeBn)-Egz-Leu-Ile-AET]
B4: AGLU-Glutar-APAc-Asp-Trp-5Clw-Tap-Glu-leu-[Cys(2Lut)-Apc(LuDOTA-glu(AGLU))-Leu-Ile-Cys]-APAc-glu(AGLU)-NH2 (peptide)
peptide: {AGLU-Glutaryl-APAc}-DW[Trp(5-Cl)][Pro(trans-4-NH2)]E[dL]C[Api]LIC-{APAc-dE(AGLU)-NH2}
modifications: linker 7-11 via Pyridine(2,6-diCH2); not fully specified (residue 8); also: DOTA complexed with Lu (LuDOTA)
B5: DOTA-Ttds-Asp-Trp-5Clw-Pro-Glu-leu-[Cys(3MeBn)-Apc(DOTA)-Leu-Ile-AET] (peptide)
peptide: {DOTA-Ttds}-DW[Trp(5-Cl)]PE[dL]C[Api](DOTA)LI[Cysteamide]
modifications: linker (positions not given here) via mXylylene; not fully specified (bridges); printed as DOTA-Ttds-Asp-Trp-5Clw-Pro-Glu-leu-[Cys(3MeBn)-Apc(DOTA)-Leu-Ile-AET]
B6: AGLU-Glutar-APAc-Asp-Trp-5Clw-Tap-Glu-leu-[Cys(2Lut)-Apc(InDOTA-glu(AGLU))-Leu-Ile-Cys]-APAc-glu(AGLU)-NH2 (peptide)
peptide: {AGLU-Glutaryl-APAc}-DW[Trp(5-Cl)][Pro(trans-4-NH2)]E[dL]C[Api]LIC-{APAc-dE(AGLU)-NH2}
modifications: linker 7-11 via Pyridine(2,6-diCH2); not fully specified (residue 8); also: DOTA complexed with In (InDOTA)
B7: AGLU-Glutar-APAc-Asp-Trp-5Clw-Tap-Glu-leu-[Cys(2Lut)-Apc(GaDOTA-glu(AGLU))-Leu-Ile-Cys]-APAc-glu(AGLU)-NH2 (peptide)
peptide: {AGLU-Glutaryl-APAc}-DW[Trp(5-Cl)][Pro(trans-4-NH2)]E[dL]C[Api]LIC-{APAc-dE(AGLU)-NH2}
modifications: linker 7-11 via Pyridine(2,6-diCH2); not fully specified (residue 8); also: DOTA complexed with Ga (GaDOTA)

*1 amine or outer side, *2 acyl side, *3 side chain or, on linkers, in order; H or OH if unused. Bridges are numbered along the chain shown (N, C = ends). Primed or numbered codes have the meaning given here. Where no end group is shown, it is not given here. Side-chain parts run from the residue outwards. [ ]: non-standard residue; d: D form. The star is where a group is joined. EuDOTA = DOTA europium complex, O=C([O-])CN1CCN(CC(=O)[O-])CCN(CC(=O)*)CCN(CC(=O)[O-])CC1.[Eu+3]; Ttds = 1,13-diamino-4,7,10-trioxatridecan-succinamic acid, NCCCOCCOCCOCCCNC(=O)CCC(=O)*; DOTA(In) = O=C1CN2CCN3CCN(CC(=O)*)CCN(CC2)CC(=O)[O][In]([O]1)[O]C(=O)C3; NH(1-deoxy-D-glucityl) = OC[C@@H](O)[C@@H](O)[C@H](O)[C@@H](O)CN*; (dE)(AGLU) = D-glutamic acid bearing 1-amino-1-deoxy-D-glucitol; dE(AGLU) = D-glutamic acid bearing 1-amino-1-deoxy-D-glucitol; Ttds(4) = 1,13-diamino-4,7,10-trioxatridecan-succinamic acid; Pro(trans-4-NH2) = O=C([C@@H]1C[C@@H](N[*:3])CN1[*:1])[*:2]; DOTA = O=C(O)CN1CCN(CC(=O)O)CCN(CC(=O)*)CCN(CC(=O)O)CC1; 2Lut = 2,6-lutidylidene bridge between two thiols; Trp(5-Cl) = N[C@@H](Cc1c[nH]c2ccc(Cl)cc12)C(=O)O; Pyridine(2,6-diCH2) = c1cc(C[*:1])nc(C[*:2])c1; Trp(5-F) = N[C@@H](Cc1c[nH]c2ccc(F)cc12)C(=O)O; Trp(6-F) = N[C@@H](Cc1c[nH]c2cc(F)ccc12)C(=O)O; APAc = 4-amino-1-carboxymethylpiperidine; 1Nal = N[C@@H](Cc1cccc2ccccc12)C(=O)O; mXylylene = c1cc(C[*:1])cc(C[*:2])c1; LuDOTA = DOTA Lutetium(III) complex; Glutaryl = O=C(CCCC(=O)[*:2])[*:1]; AGLU = 1-amino-1-deoxy-D-glucitol; Hyp = O=C(O)[C@@H]1C[C@@H](O)CN1; Cysteamide = C(CS[*:3])N[*:1]; dGlu(AGLU) = not defined here; Suc = O=C(CCC(=O)[*:2])[*:1]; 2Lut(3) = 2,6-lutidylidene; Ac6c = NC1(C(=O)O)CCCCC1; Api = NC1(C(=O)O)CCNCC1; Thp = NC1(C(=O)O)CCOCC1; Aib = CC(C)(N)C(=O)O

This experiment deals with human Gastric Inhibitory Peptide Receptor (human) (UniProt P48546). The experiment can be described thus: FACS competition with GIP-057 on CHO-K1-hGIPR cells; pIC50 category A: >8.0.
Sequence of human Gastric Inhibitory Peptide Receptor (human) (P48546 22-466 limits assumed): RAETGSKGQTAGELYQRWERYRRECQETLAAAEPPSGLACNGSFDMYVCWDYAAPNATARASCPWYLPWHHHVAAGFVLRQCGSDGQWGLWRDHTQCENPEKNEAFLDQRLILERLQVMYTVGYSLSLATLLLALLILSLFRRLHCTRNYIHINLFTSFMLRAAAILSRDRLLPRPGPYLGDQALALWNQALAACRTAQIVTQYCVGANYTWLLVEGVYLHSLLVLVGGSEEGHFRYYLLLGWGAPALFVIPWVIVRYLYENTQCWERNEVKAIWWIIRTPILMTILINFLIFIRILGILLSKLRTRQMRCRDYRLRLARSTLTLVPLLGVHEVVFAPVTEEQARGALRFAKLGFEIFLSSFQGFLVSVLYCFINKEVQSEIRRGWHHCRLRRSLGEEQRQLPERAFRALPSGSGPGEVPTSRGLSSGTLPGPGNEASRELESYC
{EuDOTA-dGlu(AGLU)-APAc}-DW[Trp(5-Cl)][Hyp]E[dL]C[Thp]LIC-{APAc-dGlu(AGLU)-NH2} (linker 7-11 via 2Lut; reading uncertain; also: Eu complex of DOTA) [EuDOTA-glu(AGLU)-APAc-Asp-Trp-5Clw-Hyp-Glu-leu-[Cys(2Lut)-Thp-Leu-Ile-Cys]-APAc-glu(AGLU)-NH2] yielded a pIC50 of over 8 pic50.

On to {AGLU-Glutaryl-APAc}-DW[Trp(5-Cl)][Hyp]E[dL]C[Api]LIC-{APAc-dE(AGLU)-NH2} (linker 7-11 via Pyridine(2,6-diCH2); not fully specified (residue 8)), for which the pIC50 was over 8 pic50. The same measure for {DOTA-Ttds}-DW[Trp(5-Cl)][Hyp]E[dL]C[Api](DOTA)LICK(DOTA)-NH2 (linker 7-11 via 2Lut(3)) [DOTA-Ttds-Asp-Trp-5Clw-Hyp-Glu-leu-[Cys(2Lut)-Apc(DOTA)-Leu-Ile-Cys]-Lys(DOTA)-NH2]: over 8 pic50; for Ac-D[Trp(6-F)][1Nal]PE[dL]C[Aib]LIC-{Ttds(4)-K(DOTA)-NH2} (linker 7-11 via mXylylene) [Ac-Asp-6Fw-1Ni-Pro-Glu-leu-[Cys(3MeBn)-Aib-Leu-Ile-Cys]-Ttds-Lys(DOTA)-NH2]: over 8 pic50. The same measure for B1: over 8 pic50; for B2: over 8 pic50; for B3: over 8 pic50. The same measure for {DOTA-dE(AGLU)}-DW[Trp(5-Cl)][Pro(trans-4-NH2)]E[dL]C[Api]([Glutaryl-NH(1-deoxy-D-glucityl)])LIC-{APAc-dE(AGLU)-NH2} (linker 7-11 via Pyridine(2,6-diCH2)) [DOTA-glu(AGLU)-Asp-Trp-5Clw-Tap-Glu-leu-[Cys(2Lut)-Apc(AGLU-Glutar)-Leu-Ile-Cys]-APAc-glu(AGLU)-NH2]: over 8 pic50; for Ac-D[Trp(5-F)][1Nal]PE[dL]C[Aib]LIC-{Ttds(4)-K(DOTA)-NH2} (linker 7-11 via mXylylene) [Ac-Asp-5Fw-1Ni-Pro-Glu-leu-[Cys(3MeBn)-Aib-Leu-Ile-Cys]-Ttds-Lys(DOTA)-NH2]: over 8 pic50; for {LuDOTA-dE(AGLU)-APAc}-DW[Trp(5-Cl)][Hyp]E[dL]C[Thp]LIC-{APAc-dE(AGLU)-NH2} (linker 7-11 via Pyridine(2,6-diCH2)) [LuDOTA-glu(AGLU)-APAc-Asp-Trp-5Clw-Hyp-Glu-leu-[Cys(2Lut)-Thp-Leu-Ile-Cys]-APAc-glu(AGLU)-NH2]: over 8 pic50. With B4, the pIC50 was over 8 pic50. The same measure for {DOTA-Ttds}-DW[Trp(5-Cl)][Hyp]E[dL]C[Thp]LICK(DOTA)-NH2 (linker 7-11 via 2Lut(3)) [DOTA-Ttds-Asp-Trp-5Clw-Hyp-Glu-leu-[Cys(2Lut)-Thp-Leu-Ile-Cys]-Lys(DOTA)-NH2]: over 8 pic50. The same measure for B5: over 8 pic50.

For B6, the pIC50 is over 8 pic50.

Molecule Suc-W[Trp(5-Cl)][Hyp]E[dL]C[Api]([Glutaryl-NH(1-deoxy-D-glucityl)])LIC-{APAc-Lys(DOTA)-NH2} (linker 6-10 via Pyridine(2,6-diCH2)) [HO-Succinyl-Trp-5Clw-Hyp-Glu-leu-[Cys(2Lut)-Apc(AGLU-Glutar)-Leu-Ile-Cys]-APAc-Lys(DOTA)-NH2] yielded a pIC50 of over 8 pic50. The same measure for {AGLU-Glutaryl}-DW[Trp(5-Cl)][Pro(trans-4-NH2)]E[dL]C[Api](DOTA)LI[dC]-{APAc-dE(AGLU)-NH2} (linker 7-11 via Pyridine(2,6-diCH2)) [AGLU-Glutar-Asp-Trp-5Clw-Tap-Glu-leu-[Cys(2Lut)-Apc(DOTA)-Leu-Ile-cys]-APAc-glu(AGLU)-NH2]: over 8 pic50; for B7: over 8 pic50; for {DOTA(In)-dE(AGLU)-APAc}-DW[Trp(5-Cl)][Hyp]E[dL]C[Thp]LIC-{APAc-dE(AGLU)-NH2} (linker 7-11 via Pyridine(2,6-diCH2)) [InDOTA-glu(AGLU)-APAc-Asp-Trp-5Clw-Hyp-Glu-leu-[Cys(2Lut)-Thp-Leu-Ile-Cys]-APAc-glu(AGLU)-NH2]: over 8 pic50. Regarding {AGLU-Glutaryl}-DW[Trp(5-Cl)][Pro(trans-4-NH2)]E[dL]C[Api](GaNODAGA)LIC-{APAc-dE(AGLU)-NH2} (linker 7-11 via Pyridine(2,6-diCH2)) [AGLU-Glutar-Asp-Trp-5Clw-Tap-Glu-leu-[Cys(2Lut)-Apc(GaNODAGA)-Leu-Ile-Cys]-APAc-glu(AGLU)-NH2], the pIC50 is over 8 pic50.

In turn, {DOTA-dE(AGLU)-APAc}-DW[Trp(5-Cl)][Hyp]E[dL]C[Api]([Glutaryl-NH(1-deoxy-D-glucityl)])LIC-{APAc-dE(AGLU)-NH2} (linker 7-11 via Pyridine(2,6-diCH2)) had a pIC50 of over 8 pic50. The same measure for {DOTA-Ttds}-DW[Trp(5-Cl)][Pro(trans-4-NH2)](DOTA)E[dL]C[Api](DOTA)LICK(DOTA)-NH2 (linker 7-11 via Pyridine(2,6-diCH2)) [DOTA-Ttds-Asp-Trp-5Clw-Tap(DOTA)-Glu-leu-[Cys(2Lut)-Apc(DOTA)-Leu-Ile-Cys]-Lys(DOTA)-NH2]: over 8 pic50.
